*: point of attachment. Farnesyl = CC(C)=CCC/C(C)=C/CC/C(C)=C/C*
Assays:
[1] = target: T1, PDE6D (phosphodiesterase 6 delta), wild type, polyhistidine tag removed (UniProt O43924 1-150); experiment: FP; + compound-1, replicate 3
[2] = target: T1, PDE6D (phosphodiesterase 6 delta), wild …; experiment: FP; + compound-1, replicate 2
[3] = target: T1, PDE6D (phosphodiesterase 6 delta), wild …; experiment: FP; in the presence of 500 uM Compound-2
[4] = target: T1, PDE6D (phosphodiesterase 6 delta), wild …; experiment: FP; replicate 3
[5] = target: T1, PDE6D (phosphodiesterase 6 delta), wild …; experiment: FP; average of 3 replicates
[6] = target: T1, PDE6D (phosphodiesterase 6 delta), wild …; experiment: FP; + compound-1, replicate 1
[7] = target: T1, PDE6D (phosphodiesterase 6 delta), wild …; experiment: FP; + compound-1, average of 3 replicates

Kd [1]: 1.2 µM
Kd [2]: 1.7 µM
Kd [3]: 55.2 µM
Kd [4]: 1.1 µM
Kd [5]: 1.4 µM
Kd [6]: 1 µM
Kd [7]: 1.3 µM
Binder: {FAM}-KKKKKKSKTKC(Farnesyl)-OMe [fluorescein-labeled KRAS HVR peptide, FAM-KKKKKKSKTKC(OMe)-Far]
